Paper PMC8298264, “Function of cofactor Akirin2 in the regulation of gene expression in model human neutrophil-like HL60 cells” (Bioscience Reports, 2021)

Test system: human HL60 cells
Assay: SWATH-MS proteomics, differential protein representation, akirin2 KO vs WT HL60 cells
Format: cell-based
Conditions: KO vs WT HL60 cells; sheet "Under-represented in KO"
Method in brief: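 Three biological replicates per genotype; 150 µg protein FASP/trypsin digested; IDA library (3 µg digest); SWATH variable windows, 5 µg/sample, 3.6 s cycle; gradient 5–30% B 120 min then 30–60% B 15 min; 1% global FDR; TAS normalization.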

B1: sp¦O96011¦PX11B_HUMAN (protein, UniProt O96011 1-259, looked up)
Peroxisomal membrane protein …: MDAWVRFSAQSQARERLCRAAQYACSLLGHALQRHGASPELQKQIRQLESHLSLGRKLLRLGNSADALESAKRAVHLSDVVLRFCITVSHLNRALYFACDNVLWAGKSGLAPRVDQEKWAQRSFRYYLFSLIMNLSRDAYEIRLLMEQESSACSRRLKGSGGGVPGGSETGGLGGPGTPGGGLPQLALKLRLQVLLLARVLRGHPPLLLDVVRNACDLFIPLDKLGLWRCGPGIVGLCGLVSSILSILTLIYPWLRLKP
Fold Change: 0.5344 | Log (Fold Change): -0.2721

B2: sp¦Q8WU39¦MZB1_HUMAN (protein, UniProt Q8WU39 23-189, looked up)
Marginal zone B- and …: DRAPLTATAPQLDDEEMYSAHMPAHLRCDACRAVAYQMWQNLAKAETKLHTSNSGGRRELSELVYTDVLDRSCSRNWQDYGVREVDQVKRLTGPGLSEGPEPSISVMVTGGPWPTRLSRTCLHYLGEFGEDQIYEAHQQGRGALEALLCGGPQGACSEKVSATREEL
Fold Change: 0.5261 | Log (Fold Change): -0.279

B3: sp¦Q9UGP8¦SEC63_HUMAN (protein, UniProt Q9UGP8 1-760, looked up)
Translocation protein SEC63 …: MAGQQFQYDDSGNTFFYFLTSFVGLIVIPATYYLWPRDQNAEQIRLKNIRKVYGRCMWYRLRLLKPQPNIIPTVKKIVLLAGWALFLFLAYKVSKTDREYQEYNPYEVLNLDPGATVAEIKKQYRLLSLKYHPDKGGDEVMFMRIAKAYAALTDEESRKNWEEFGNPDGPQATSFGIALPAWIVDQKNSILVLLVYGLAFMVILPVVVGSWWYRSIRYSGDQILIRTTQIYTYFVYKTRNMDMKRLIMVLAGASEFDPQYNKDATSRPTDNILIPQLIREIGSINLKKNEPPLTCPYSLKARVLLLSHLARMKIPETLEEDQQFMLKKCPALLQEMVNVICQLIVMARNREEREFRAPTLASLENCMKLSQMAVQGLQQFKSPLLQLPHIEEDNLRRVSNHKKYKIKTIQDLVSLKESDRHTLLHFLEDEKYEEVMAVLGSFPYVTMDIKSQVLDDEDSNNITVGSLVTVLVKLTRQTMAEVFEKEQSICAAEEQPAEDGQGETNKNRTKGGWQQKSKGPKKTAKSKKKKPLKKKPTPVLLPQSKQQKQKQANGVVGNEAAVKEDEEEVSDKGSDSEEEETNRDSQSEKDDGSDRDSDREQDEKQNKDDEAEWQELQQSIQRKERALLETKSKITHPVYSLYFPEEKQEWWWLYIADRKEQTLISMPYHVCTLKDTEEVELKFPAPGKPGNYQYTVFLRSDSYMGLDQIKPLKLEVHEAKPVPENHPQWDTAIEGDEDQEDSEGFEDSFEEEEEEEEDDD
Fold Change: 0.5228 | Log (Fold Change): -0.2816

B4: sp¦Q9BTT0¦AN32E_HUMAN (protein, UniProt Q9BTT0 1-268, looked up)
Acidic leucine-rich nuclear …: MEMKKKINLELRNRSPEEVTELVLDNCLCVNGEIEGLNDTFKELEFLSMANVELSSLARLPSLNKLRKLELSDNIISGGLEVLAEKCPNLTYLNLSGNKIKDLSTVEALQNLKNLKSLDLFNCEITNLEDYRESIFELLQQITYLDGFDQEDNEAPDSEEEDDEDGDEDDEEEEENEAGPPEGYEEEEEEEEEEDEDEDEDEDEAGSELGEGEEEVGLSYLMKEEIQDEEDDDDYVEEGEEEEEEEEGGLRGEKRKRDAEDDGEEEDD
Fold Change: 0.5286 | Log (Fold Change): -0.2769

B5: sp¦Q9NVA1¦UQCC1_HUMAN (protein, UniProt Q9NVA1 1-299, looked up)
Ubiquinol-cytochrome c …: MALLVRVLRNQTSISQWVPVCSRLIPVSPTQGQGDRALSRTSQWPQMSQSRACGGSEQIPGIDIQLNRKYHTTRKLSTTKDSPQPVEEKVGAFTKIIEAMGFTGPLKYSKWKIKIAALRMYTSCVEKTDFEEFFLRCQMPDTFNSWFLITLLHVWMCLVRMKQEGRSGKYMCRIIVHFMWEDVQQRGRVMGVNPYILKKNMILMTNHFYAAILGYDEGILSDDHGLAAALWRTFFNRKCEDPRHLELLVEYVRKQIQYLDSMNGEDLLLTGEVSWRPLVEKNPQSILKPHSPTYNDEGL
Fold Change: 0.5349 | Log (Fold Change): -0.2718

B6: sp¦O75746¦CMC1_HUMAN (protein, UniProt O75746 2-678, looked up)
Electrogenic …: AVKVQTTKRGDPHELRNIFLQYASTEVDGERYMTPEDFVQRYLGLYNDPNSNPKIVQLLAGVADQTKDGLISYQEFLAFESVLCAPDSMFIVAFQLFDKSGNGEVTFENVKEIFGQTIIHHHIPFNWDCEFIRLHFGHNRKKHLNYTEFTQFLQELQLEHARQAFALKDKSKSGMISGLDFSDIMVTIRSHMLTPFVEENLVSAAGGSISHQVSFSYFNAFNSLLNNMELVRKIYSTLAGTRKDVEVTKEEFAQSAIRYGQVTPLEIDILYQLADLYNASGRLTLADIERIAPLAEGALPYNLAELQRQQSPGLGRPIWLQIAESAYRFTLGSVAGAVGATAVYPIDLVKTRMQNQRGSGSVVGELMYKNSFDCFKKVLRYEGFFGLYRGLIPQLIGVAPEKAIKLTVNDFVRDKFTRRDGSVPLPAEVLAGGCAGGSQVIFTNPLEIVKIRLQVAGEITTGPRVSALNVLRDLGIFGLYKGAKACFLRDIPFSAIYFPVYAHCKLLLADENGHVGGLNLLAAGAMAGVPAASLVTPADVIKTRLQVAARAGQTTYSGVIDCFRKILREEGPSAFWKGTAARVFRSSPQFGVTLVTYELLQRWFYIDFGGLKPAGSEPTPKSRIADLPPANPDHIGGYRLATATFAGIENKFGLYLPKFKSPSVAVVQPKAAVAATQ
Fold Change: 0.5201 | Log (Fold Change): -0.2839

B7: sp¦Q9Y276¦BCS1_HUMAN (protein, UniProt Q9Y276 2-419, looked up)
Mitochondrial chaperone BCS1: PLSDFILALKDNPYFGAGFGLVGVGTALALARKGVQLGLVAFRRHYMITLEVPARDRSYAWLLSWLTRHSTRTQHLSVETSYLQHESGRISTKFEFVPSPGNHFIWYRGKWIRVERSREMQMIDLQTGTPWESVTFTALGTDRKVFFNILEEARELALQQEEGKTVMYTAVGSEWRPFGYPRRRRPLNSVVLQQGLADRIVRDVQEFIDNPKWYTDRGIPYRRGYLLYGPPGCGKSSFITALAGELEHSICLLSLTDSSLSDDRLNHLLSVAPQQSLVLLEDVDAAFLSRDLAVENPVKYQGLGRLTFSGLLNALDGVASTEARIVFMTTNHVDRLDPALIRPGRVDLKEYVGYCSHWQLTQMFQRFYPGQAPSLAENFAEHVLRATNQISPAQVQGYFMLYKNDPVGAIHNAESLRR
Fold Change: 0.5207 | Log (Fold Change): -0.2834

B8: sp¦Q02218¦ODO1_HUMAN (protein, UniProt Q02218 41-1023, looked up)
2-oxoglutarate dehydrogenase …: SAPVAAEPFLSGTSSNYVEEMYCAWLENPKSVHKSWDIFFRNTNAGAPPGTAYQSPLPLSRGSLAAVAHAQSLVEAQPNVDKLVEDHLAVQSLIRAYQIRGHHVAQLDPLGILDADLDSSVPADIISSTDKLGFYGLDESDLDKVFHLPTTTFIGGQESALPLREIIRRLEMAYCQHIGVEFMFINDLEQCQWIRQKFETPGIMQFTNEEKRTLLARLVRSTRFEEFLQRKWSSEKRFGLEGCEVLIPALKTIIDKSSENGVDYVIMGMPHRGRLNVLANVIRKELEQIFCQFDSKLEAADEGSGDVKYHLGMYHRRINRVTDRNITLSLVANPSHLEAADPVVMGKTKAEQFYCGDTEGKKVMSILLHGDAAFAGQGIVYETFHLSDLPSYTTHGTVHVVVNNQIGFTTDPRMARSSPYPTDVARVVNAPIFHVNSDDPEAVMYVCKVAAEWRSTFHKDVVVDLVCYRRNGHNEMDEPMFTQPLMYKQIRKQKPVLQKYAELLVSQGVVNQPEYEEEISKYDKICEEAFARSKDEKILHIKHWLDSPWPGFFTLDGQPRSMSCPSTGLTEDILTHIGNVASSVPVENFTIHGGLSRILKTRGEMVKNRTVDWALAEYMAFGSLLKEGIHIRLSGQDVERGTFSHRHHVLHDQNVDKRTCIPMNHLWPNQAPYTVCNSSLSEYGVLGFELGFAMASPNALVLWEAQFGDFHNTAQCIIDQFICPGQAKWVRQNGIVLLLPHGMEGMGPEHSSARPERFLQMCNDDPDVLPDLKEANFDINQLYDCNWVVVNCSTPGNFFHVLRRQILLPFRKPLIIFTPKSLLRHPEARSSFDEMLPGTHFQRVIPEDGPAAQNPENVKRLLFCTGKVYYDLTRERKARDMVGQVAITRIEQLSPFPFDLLLKEVQKYPNAELAWCQEEHKNQGYYDYVKPRLRTTISRAKPVWYAGRDPAAAPATGNKKTHLTELQRLLDTAFDLDVFKNFS
Fold Change: 0.5221 | Log (Fold Change): -0.2822
